Measurements reported in PMC7589982.

Target: HPV16 E6 oncoprotein, full-length, LexA bait (pGilda/LexA) (human papillomavirus 16) (UniProt P03126)
Test: two-hybrid; full-length HPV16 E6 in pGilda/LexA as bait; growth on medium lacking leucine, blue colonies, beta-galactosidase activity (unit) with ONPG

UniProt P03126, sequence (P03126 whole entry): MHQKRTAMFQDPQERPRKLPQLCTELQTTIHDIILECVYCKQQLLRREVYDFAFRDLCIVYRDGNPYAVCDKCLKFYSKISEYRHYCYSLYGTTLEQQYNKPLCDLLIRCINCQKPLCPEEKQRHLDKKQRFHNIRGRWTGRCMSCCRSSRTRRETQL

IRF-1 (interferon regulatory factor-1), yeast two-hybrid prey (natural protein)
β-galactosidase activity: 88.2 unit
